Experimental data from the nanobody polyreactivity screen of Harvey et al. (2022).

Assay: yeast display, Sf9 membrane polyspecificity reagent, FACS + sequencing; frameworks hold sequencing errors
How it was run: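 Polyreactivity labels are assigned by the sorting gate from which each nanobody was recovered. The gates were low and high (top ~1%), set on anti-HA fluorescence for expression and streptavidin fluorescence for reagent binding. Before sorting, galactose-induced (36–48 hours) yeast display cells were stained for 1 hour at 4 °C with 10% biotinylated, detergent-solubilized Sf9 membrane reagent.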

Row | Sequence | polyreactivity (PSR sort gate)
1 | QVQLVESGGGLVQAGGSLRLSCAASGFTFLSNDMGWYRQSPGKERELVAGINFSGDGTYYADSVKGRFTISRDNAKNPVYLQMNSLKPEDSAVYYCAAGWLPKYGYWGKGTQVTVSS | low polyreactivity
2 | QVQLVESGGGLVQAGGSLRLSCAASGFTFLTNAMGWYRQAPGKERELVAAISSGGNTNYADSVKGRFTISRDNAKNTVYLQMNSLKPEDTAVYYCAADNDYLSSQVSYDYWGQGTQVTVSS | low polyreactivity
3 | QVQLVESGGGLVQAGGSLRLSCAASGFTFLVNAMGWYRQAPGKERELVAAISSGGSTYYADSVKGRFTISRDNAKNTVYLQMNSLKPEDTAVYYCAAPTDFLFWEFDYWGQCTQVTVSS | low polyreactivity
4 | QVQLVESGGGLVQAGGSLRLSCAASGFTFLVYAMGWYRQAPGKERELVAAISRRGCSTYYADSVKGRFTISRDNAKNTVYLQMNSLKPEDTSVYYCNKYRQQGWEFDYWGQGTQVTVSS | high polyreactivity
5 | QVQLVESGGGLVQAGGSLRLSCAASGFTFLYGMGWYRQAPGEERELVAAISNTGGSTYYADSVKGRFTISRDNAKNTVYLQMNSLKPEDTAVYYCAADGGQWWVFYALDFWGQGTQVTVSS | low polyreactivity
6 | QVQLVESGGGLVQAGGSLRLSCAASGFTFLYYAMGWYRPAPGKERELVAAISASSDRTYYADSVKGRFTISRDNAKNTVYLQMNSLKPEDTAVYYCAAYNSRVGGYRGYGYWGQGTQVTVSS | high polyreactivity
7 | QVQLVESGGGLVQAGGSLRLSCAASGFTFLYYDMGWYRQAPGKERELVAAITNDDSTYYADSVKGRFTISRDNAKNTVYLQMNSLKPEDTAVYYCNADVWYYTPYDYWGQVTQVTVSS | high polyreactivity
8 | QVQLVESGGGLVQAGGSLRLSCAASGFTFNDNAMGWYRQAPGKERELVAAITYGGSTYYADSVKGRFTISRDNAKNTVYLQMNSLKPEDTAVYYCARDLSAGPGRDYWGQGTQVTVSS | low polyreactivity
9 | QVQLVESGGGLVQAGGSLRLSCAASGFTFNKYAMGCYRQAPGKERELVAAISGSGGRTYYADSVKGRFTISRDNAKNTVYLQMNSLKPEDTAVYYCAAQRSVKVDYWGQGTQVTVSS | high polyreactivity
10 | QVQLVESGGGLVQAGGSLRLSCAASGFTFNNNAMGWYRQAPGKERELVAAISSSGGNTYYADSVKGRFTISRDNAKNTVYLQMNSLKPEDTAVYYCNAGKRQRGEYWGQGTQVTVSS | high polyreactivity
11 | QVQLVESGGGLVQAGGSLRLSCAASGFTFNRYAMGWYRQAPGKERELVAAITSGGRTYYADSVKGRFTISRDNAKNTVYLQMNSLKPEDTAVYYCATLYVRNVSGYDYWGQGTQVTVSS | high polyreactivity
12 | QVQLVESGGGLVQAGGSLRLSCAASGFTFNSYAMGWYRQAPGKEREFVAAISRSGSNTNYADSVKGRFTISRDNAKNTVYLEMNSLKPEDTAVYYCAARVSSVTRSGFGYWGEGTQVTVSS | high polyreactivity
13 | QVQLVESGGGLVQAGGSLRLSCAASGFTFNSYAMGWYRQAPGKKGSWLAITSDGSTYYADSVKGRFTISRDNAKNTVYLQMNSLKPEDSAVYFCAVRTSWYGAASRYYYWGQGTKVTVSS | high polyreactivity
14 | QVQLVESGGGLVQAGGSLRLSCAASGFTFNYYAMGLYRQAPGKERELVARITSGGSTYYADSVKGRFTISRDNAKNTVYLQMNSLKPEDTAVYYCNVDVSVEVAYWGQGTQVTVSS | low polyreactivity
15 | QVQLVESGGGLVQAGGSLRLSCAASGFTFNYYAMGWYRQAPGKERELVAGITRSGVSTNYADSVKGRFTISRDNAKNTVYLQMNSLKPEDTAVYYCAREEGRRYRGWPYVYAPQHDYWGQGTQVTVSS | high polyreactivity
16 | QVQLVESGGGLVQAGGSLRLSCAASGFTFNYYVMGWYRQAPGKEREMVSAISRGGGSTYYADSVKGRFTISRDNAKNTVYLQMNSLKPEDTEVYYCAARPYSYLFFYWGQGTQVTVSS | high polyreactivity
17 | QVQLVESGGGLVQAGGSLRLSCAASGFTFPAYAMGWYRQAPGKERELVAAISSRGGSTYYADSVKGRFTISRDNAKNTVYLQMNSLKPEDTAVYYCASRRANGYYYWGQGTQVTVSS | high polyreactivity
18 | QVQLVESGGGLVQAGGSLRLSCAASGFTFPGNAMGWYRQAPGKEREFVAAITRSSGSTSYADSVKGRFTISRDNAKNTVYLQMTSLKPEDTAVYRDYWGQGTQVTVSS | low polyreactivity
19 | QVQLVESGGGLVQAGGSLRLSCAASGFTFPGYAMGGYRQAPGKERELVAAISSTDRTTYADSVKGRFTISRDNAKNTVYLQMNSLKPEDTAVYYCNTATRRRPRGYWGQGTQVTVSS | high polyreactivity
20 | QVQLVESGGGLVQAGGSLRLSCAASGFTFPGYAMGWYRQAPGKERELVAAISYSSGSTYYADSVKGRFTISRDNAKNTVYLQMNSLKPEDTAVYYCNRVYRFRGITELDYWGQGTQVTVSS | high polyreactivity
21 | QVQLVESGGGLVQAGGSLRLSCAASGFTFPNYAMGWYRQAPGKERELVAAISRRGGRTYYADSVKGRFTISRDNAKNTVYLQMNSLKPEDTAVYYCATEYRGDGPKYDYWGQGTQVTVSS | high polyreactivity

Row | Sequence | polyreactivity (PSR sort gate)
22 | QVQLVESGGGLVQAGGSLRLSCAASGFTFPNYAMGWYRQAPGKERELVAAITSGGGRTNYADSVKGRFTISRDNAKNTVYLQMNSLKPEDTAVYYCAKTRVRGSEFGYWGQGTQVTVSS | low polyreactivity
23 | QVQLVESGGGLVQAGGSLRLSCAASGFTFPPYAMGWYRQAPGKERELVAAISSAGSTKYADSVKGRFTISRDNAKNTVYLQMNSLKPEDSAVYYCDKKGRTARGRYDYWGQGTQVTVSS | low polyreactivity
24 | QVQLVESGGGLVQAGGSLRLSCAASGFTFPRNAMGWYRQAPGKERELVAAISRGGGGTYYADSVKGRFTISRDNAKNTVYLQMNSLKPEDTAVYYCNARSVVREFNYWGQGTQVTVSS | high polyreactivity
25 | QVQLVESGGGLVQAGGSLRLSCAASGFTFPRYAMGWYRQAPGKERELVAAITSGDRTYYADSVKGRFTISRDNAKNTVYLQMNSLKPEDTAVYYCAKSSPRKSSQKHSFYEYNYWGQGTQVTVSS | high polyreactivity
26 | QVQLVESGGGLVQAGGSLRLSCAASGFTFPSYAMGWYRQAPGKERELGAVISRRGGSTYYADSVKGRFTISRDNAKNTVYLQLNSLKPEDTAVYYCARPRQPGSLYGYWGQGTQVTVSS | high polyreactivity
27 | QVQLVESGGGLVQAGGSLRLSCAASGFTFPTYAMGWYRQAPGKERELVAALSTSGARTYYADSVKGRFTISRDNAKNTVYLQMNSLKPEDTAVYYCAVGSIYTICFRKGYRFDYWGQGTQVTVSS | high polyreactivity
28 | QVQLVESGGGLVQAGGSLRLSCAASGFTFPVYALGWYRQAPGKEREFVAAITKSGGGTYYADSVKGRFTISRDNAKNTVYLQMTSLKPEDTAVYYCAKASRRFLTLGYDYWGQGTQVTVSS | high polyreactivity
29 | QVQLVESGGGLVQAGGSLRLSCAASGFTFPVYAMGWYRQAPGKEREFVAAITYIGGSTDADSVKGRFTISRDNAKNTVYLQMNSLKPEDTAVYYCAADIITEYRADYLVYLEYDYWGQGTQVTVSS | low polyreactivity
30 | QVQLVESGGGLVQAGGSLRLSCAASGFTFPVYVMGWYRQAPGKERELVSAISGGGGTYYADSVKGRFTISRDNAKNTVYLQMNSLKPEDTAVYYCAADYRTYVYVYGFRHFDYWGQGTQVTVSS | low polyreactivity
31 | QVQLVESGGGLVQAGGSLRLSCAASGFTFPYYAMGWSRQAPGKERELVAAISFSGGSPYYADSVKGRFTISRDNAKNTVYLQMNSLKPEDTAVYYCAATTKYNGRRSYFKFDYWGQGTQVTVST | high polyreactivity
32 | QVQLVESGGGLVQAGGSLRLSCAASGFTFPYYAMGWYRQAPGKERELVAAISKSGGSTYYADSVKGRFTISRDYAKNTVYLQMNSLKPEDTAVYYCAADWYWWSYSDRHDYWGQGIQVTVSS | high polyreactivity
33 | QVQLVESGGGLVQAGGSLRLSCAASGFTFPYYAMGWYRQAPGKERELVAAISYSGSTTYYADSVKGRFTISRDNAKNTVYLQMNSLKPEDTAVYYCAKAGYYYFQQWQVDYWGQGTQVTVSS | high polyreactivity
34 | QVQLVESGGGLVQAGGSLRLSCAASGFTFPYYAMGWYRQAPGKERELVAVISRSGGSTYYADSVKGRFTISRDNAKNTVYLQMNSLKPEDTAVYYCAKRYSLTGGKRTGYYWGQGTQVTVSS | high polyreactivity
35 | QVQLVESGGGLVQAGGSLRLSCAASGFTFPYYSMGWYRQAPGKERELVAAINRSGGTKYADSVKGRFTISRDNAKNTVYVQMNSLKPEDTAVYDCAADSFYSRSRYDYWGQGSQVTVSS | high polyreactivity
36 | QVQLVESGGGLVQAGGSLRLSCAASGFTFQDYAMGWYRQAPGKERELVASISNGGSTYYADSVKGRFTISRDNAKNTVYLQMNSLKPEDTAVYYCAKPYDPGPYHSSYRATDDYWGQGTQVTVSS | low polyreactivity
37 | QVQLVESGGGLVQAGGSLRLSCAASGFTFQGYVMGWYRQAPGKERELVARITNDGSTTYADSVKGRFTISRDNAKNTVYLQMNSLKPEDTAVYYCDRPYRFWRYYGMYYWGQGTQVTVSS | high polyreactivity
38 | QVQLVESGGGLVQAGGSLRLSCAASGFTFQRYAMGWYRQAPGKERELVAAISVRGTRTYYADSVKGRFTISRDNAMNTVYLQMNSLKPEDTAVYYCNADWERDVQDDYWGQGTQVTVSS | high polyreactivity
39 | QVQLVESGGGLVQAGGSLRLSCAASGFTFQRYAMGWYRQAPGKERELVATINWSGRTYYADSVNGRFTISRDNAKNTVYLQMNSLKPEDTAVYYCAAERIQYGWWVLFDYWGQGTQVTVSS | high polyreactivity
40 | QVQLVESGGGLVQAGGSLRLSCAASGFTFQTYAMGWYRQAPGKERELVATINSSGGGTYYADSVKGRFTNSRDNAKNTVYLQMNSLKPEDTAVYYCAADAVWFVGQAFDISDSTTYGYWGQGTQVTVSS | low polyreactivity
41 | QVQLVESGGGLVQAGGSLRLSCAASGFTFQYNAMGWYRQAPGKERELVAGISRSGANTYYADSVKGRFTISRDTAKNTVYLQMNSLKPEDTAVYYCNNLTSRVGPDEYDYWGQGTQVTVSS | high polyreactivity
